Drawing on paper PMC10085679, “Filament assembly underpins the double-stranded DNA specificity of AIM2-like receptors”, this text covers Kd and IC50 for ten molecules.

Data set [1] has as its target T1, IFI16HinAB (Homo sapiens, UniProt Q16666-2 159-729). Briefly: EMSA; apparent KD >=1 uM; low salt; 160 mM KCl; 60 mM KCl for IFI16HinAB; FAM probe 3-6 nM (FA) or 20 nM (EMSA); binding buffer pH and temperature not in the material. The following applies: protein: recombinant; label: FAM.
Data set [2] deals with T2, AIM2HIN (Homo sapiens, UniProt O14862 144-343).
T2 sequence: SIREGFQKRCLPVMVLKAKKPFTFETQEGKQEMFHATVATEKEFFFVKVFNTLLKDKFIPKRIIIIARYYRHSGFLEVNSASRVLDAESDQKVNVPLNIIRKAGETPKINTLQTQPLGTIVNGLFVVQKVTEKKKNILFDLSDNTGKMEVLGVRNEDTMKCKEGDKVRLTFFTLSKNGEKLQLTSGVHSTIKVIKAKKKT
In words: fluorescence anisotropy; 160 mM KCl (60 mM KCl for IFI16HinAB); buffer, pH and temperature not given in the available text. The following applies: protein: recombinant.

Data set [3] has as its target T2, AIM2HIN. Briefly: fluorescence anisotropy; 160 mM KCl; 60 mM KCl for IFI16HinAB; FAM probe 3-6 nM (FA) or 20 nM (EMSA); binding buffer pH and temperature not in the material. The following applies: protein: recombinant; label: FAM.
The target in data set [4] is T2, AIM2HIN. Briefly: competition fluorescence anisotropy; unlabelled competitor against 6 nM 24-bp FAM-dsDNA, 625 nM protein; 160 mM KCl (60 mM KCl for IFI16HinAB); buffer, pH and temperature not given in the available text. The following applies: protein: recombinant.
Data set [5] has as its target T3, IFI16FL (Homo sapiens, UniProt Q16666-2 1-729). In words: competition fluorescence anisotropy; unlabelled competitor against 6 nM 24-bp FAM-dsDNA, 500 nM protein; 160 mM KCl (60 mM KCl for IFI16HinAB); buffer, pH and temperature not given in the available text. The following applies: protein: recombinant; tags: C-terminal His6.
Data set [6] concerns the target T1, IFI16HinAB. In words: competition fluorescence anisotropy; unlabelled competitor against 6 nM 60-bp FAM-dsDNA, 400 nM protein; 160 mM KCl (60 mM KCl for IFI16HinAB); buffer, pH and temperature not given in the available text. The following applies: protein: recombinant.
For data set [7], the target named is T2, AIM2HIN. The description is as above. The following applies: protein: recombinant.
The target of data set [8] is T4, AIM2FL (Homo sapiens, UniProt O14862 1-343).
T4 sequence: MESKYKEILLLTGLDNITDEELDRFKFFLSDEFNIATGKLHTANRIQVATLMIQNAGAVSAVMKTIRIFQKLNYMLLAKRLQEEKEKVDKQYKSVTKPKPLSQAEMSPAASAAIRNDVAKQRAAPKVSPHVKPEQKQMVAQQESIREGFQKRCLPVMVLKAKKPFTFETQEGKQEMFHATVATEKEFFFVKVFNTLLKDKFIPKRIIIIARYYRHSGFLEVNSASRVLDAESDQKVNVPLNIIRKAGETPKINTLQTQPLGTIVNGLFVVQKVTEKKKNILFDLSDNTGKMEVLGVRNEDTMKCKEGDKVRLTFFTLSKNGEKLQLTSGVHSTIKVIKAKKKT
Briefly: competition fluorescence anisotropy; unlabelled competitor against 6 nM 24-bp FAM-dsDNA, 100 nM protein; 160 mM KCl (60 mM KCl for IFI16HinAB); buffer, pH and temperature not given in the available text. The following applies: protein: recombinant.

Data set [9] deals with T1, IFI16HinAB. In words: competition fluorescence anisotropy; unlabelled competitor against 6 nM 24-bp FAM-dsDNA, 1000 nM protein; 160 mM KCl (60 mM KCl for IFI16HinAB); buffer, pH and temperature not given in the available text. The following applies: protein: recombinant.
Data set [10] concerns the target T3, IFI16FL. In words: fluorescence anisotropy; 160 mM KCl; 60 mM KCl for IFI16HinAB; FAM probe 3-6 nM (FA) or 20 nM (EMSA); binding buffer pH and temperature not in the material. The following applies: protein: recombinant; tags: C-terminal His6.
Data set [11] addresses T4, AIM2FL. The description is as above. The following applies: protein: recombinant.
Data set [12] concerns the target T1, IFI16HinAB. Briefly: fluorescence anisotropy; 160 mM KCl (60 mM KCl for IFI16HinAB); buffer, pH and temperature not given in the available text. The following applies: protein: recombinant.
Data set [13] has as its target T3, IFI16FL. Described as above. The following applies: protein: recombinant; tags: C-terminal His6.
The target of data set [14] is T4, AIM2FL. The description is as above. The following applies: protein: recombinant.
In data set [15] the target is T1, IFI16HinAB. In words: EMSA; apparent KD <=250 nM; low salt; 160 mM KCl; 60 mM KCl for IFI16HinAB; FAM probe 3-6 nM (FA) or 20 nM (EMSA); binding buffer pH and temperature not in the material. The following applies: protein: recombinant; label: FAM.
Data set [16] has as its target T1, IFI16HinAB. In words: EMSA; low salt; 160 mM KCl; 60 mM KCl for IFI16HinAB; FAM probe 3-6 nM (FA) or 20 nM (EMSA); binding buffer pH and temperature not in the material. The following applies: protein: recombinant; label: FAM.
Data set [17] concerns the target T3, IFI16FL. Briefly: competition fluorescence anisotropy; unlabelled competitor against 6 nM 60-bp FAM-dsDNA, 100 nM protein; 160 mM KCl (60 mM KCl for IFI16HinAB); buffer, pH and temperature not given in the available text. The following applies: protein: recombinant; tags: C-terminal His6.

T3 sequence (Q16666 other isoform, or with tags, fused parts or gaps): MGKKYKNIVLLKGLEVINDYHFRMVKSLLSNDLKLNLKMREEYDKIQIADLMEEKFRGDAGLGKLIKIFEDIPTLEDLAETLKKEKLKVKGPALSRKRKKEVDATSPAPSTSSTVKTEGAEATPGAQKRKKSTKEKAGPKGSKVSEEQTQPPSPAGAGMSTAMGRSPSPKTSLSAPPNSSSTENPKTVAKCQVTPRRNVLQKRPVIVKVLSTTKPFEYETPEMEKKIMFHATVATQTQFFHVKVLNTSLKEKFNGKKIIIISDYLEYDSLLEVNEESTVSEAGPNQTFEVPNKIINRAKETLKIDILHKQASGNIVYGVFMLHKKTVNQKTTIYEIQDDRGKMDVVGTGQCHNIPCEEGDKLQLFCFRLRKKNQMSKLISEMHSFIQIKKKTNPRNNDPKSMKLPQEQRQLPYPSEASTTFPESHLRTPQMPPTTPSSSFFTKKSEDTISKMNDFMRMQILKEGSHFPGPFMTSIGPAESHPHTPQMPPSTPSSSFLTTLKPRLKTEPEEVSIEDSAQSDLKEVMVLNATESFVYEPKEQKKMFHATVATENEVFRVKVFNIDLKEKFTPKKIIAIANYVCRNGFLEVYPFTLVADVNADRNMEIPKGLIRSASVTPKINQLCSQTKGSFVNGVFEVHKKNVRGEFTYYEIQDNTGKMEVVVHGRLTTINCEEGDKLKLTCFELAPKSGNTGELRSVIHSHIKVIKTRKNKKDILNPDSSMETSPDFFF
T1 sequence (Q16666 other isoform, or with tags, fused parts or gaps): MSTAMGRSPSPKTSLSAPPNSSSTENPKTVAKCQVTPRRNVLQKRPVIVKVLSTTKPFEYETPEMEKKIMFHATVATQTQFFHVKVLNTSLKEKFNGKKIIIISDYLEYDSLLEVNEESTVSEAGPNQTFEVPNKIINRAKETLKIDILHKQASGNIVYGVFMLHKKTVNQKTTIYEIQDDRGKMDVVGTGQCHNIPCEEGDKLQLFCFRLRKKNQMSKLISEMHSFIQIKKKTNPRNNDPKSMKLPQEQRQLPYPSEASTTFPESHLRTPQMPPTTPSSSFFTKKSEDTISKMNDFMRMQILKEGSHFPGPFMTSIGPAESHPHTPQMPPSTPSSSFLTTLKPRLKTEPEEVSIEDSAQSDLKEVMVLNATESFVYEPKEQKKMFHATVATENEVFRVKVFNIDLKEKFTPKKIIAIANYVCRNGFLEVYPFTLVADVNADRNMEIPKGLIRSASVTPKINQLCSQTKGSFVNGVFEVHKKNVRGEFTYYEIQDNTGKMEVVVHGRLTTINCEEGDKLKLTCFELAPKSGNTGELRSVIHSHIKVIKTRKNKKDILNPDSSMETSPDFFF

B1: 24-bp dsRNA (dsRNA)
RNA 1: UAAGACACGAUGCGAUAAAAUCUG
RNA 2: CAGAUUUUAUCGCAUCGUGUCUUA
As for B1, the values for the Kd with IFI16HinAB [1] and with AIM2HIN [2] (label: FAM) were over 1000 nM and 1200 ± 200 nM, respectively.

B2: 24-base ssDNA_A (ssDNA)
DNA: AAAGAAAGAAAGAAAGAAAGAAAG
Consider B2, for which the Kd was over 1000 nM with IFI16HinAB [1] and 5.7 ± 0.7 µM with AIM2HIN [3].

B3: 60-base ssDNA_T (ssDNA)
DNA: TTTCTTTCTTTCTTTCTTTCTTTCTTTCTTTCTTTCTTTCTTTCTTTCTTTCTTTCTTTC
On to B3, for which the IC50 with AIM2HIN [4] was found to be 113 ± 7.3 nM; in the data set with IFI16FL [5], 644 ± 133 nM; in the data set with IFI16HinAB [6], 1390 ± 137 nM; with AIM2HIN [7] it was 1000 ± 259 nM; with AIM2FL [8], 165 ± 7.3 nM; with IFI16HinAB [9], 828 ± 155 nM. In addition, the Kd was 22 ± 4 nM with IFI16FL [10]; 320 ± 80 nM with AIM2FL [11]; 70 ± 20 nM with IFI16HinAB [12]; 22 ± 4 nM in the data set with IFI16FL [13]; 320 ± 80 nM with AIM2FL [14]; 400 ± 100 nM in the data set with AIM2HIN [2].

B4: 24-bp dsDNA (dsDNA)
DNA 1: TAAGACACGATGCGATAAAATCTG
DNA 2: CAGATTTTATCGCATCGTGTCTTA
Regarding B4, the results for the Kd in the data set with IFI16HinAB [15], with AIM2FL [14] (label: FAM) and with AIM2HIN [2] (label: FAM) were under 250 nM, 80 ± 20 nM and 900 ± 200 nM, respectively.

B5: 24-base ssRNA_A (ssRNA)
RNA: AAAGAAAGAAAGAAAGAAAGAAAG
B5: the Kd with IFI16HinAB [16] is about 500 nM.

B6: 60-base ssRNA_U (ssRNA)
RNA: UUUCUUUCUUUCUUUCUUUCUUUCUUUCUUUCUUUCUUUCUUUCUUUCUUUCUUUCUUUC
Turning to B6, the IC50 was found to be 219 ± 33.5 nM in the data set with AIM2HIN [4]; 305 ± 48.5 nM with IFI16FL [5]; 741 ± 70.3 nM with AIM2HIN [7]; 273 ± 171 nM with AIM2FL [8]; 733 ± 48.5 nM with IFI16HinAB [9]; 1120 ± 75.5 nM with IFI16FL [17]. Also, the Kd with IFI16FL [10] stood at 78 ± 11 nM; with AIM2FL [11], 80 ± 20 nM; with IFI16HinAB [12], 30 ± 10 nM; in the data set with IFI16FL [13], 78 ± 11 nM; in the data set with AIM2FL [14] it was 80 ± 20 nM; in the data set with AIM2HIN [2], 300 ± 100 nM.

B7: 24-base ssRNA_U (ssRNA)
RNA: UUUCUUUCUUUCUUUCUUUCUUUC
In the case of B7, the Kd was about 500 nM with IFI16HinAB [16] and 210 ± 60 nM with AIM2HIN [2] (label: FAM).

B8: 24-base ssDNA_T (ssDNA)
DNA: TTTCTTTCTTTCTTTCTTTCTTTC
Take B8: the Kd with IFI16HinAB [1] was over 1000 nM; with AIM2HIN [2] (label: FAM) it was 1200 ± 200 nM.

B9: 24-bp DNA:RNA hybrid (DNA:RNA)
DNA: TAAGACACGATGCGATAAAATCTG
RNA: CAGAUUUUAUCGCAUCGUGUCUUA
In the case of B9, the Kd with IFI16HinAB [15] was under 250 nM; in the data set with AIM2HIN [2] (label: FAM), 900 ± 100 nM.

B10: 60-bp dsRNA (dsRNA)
RNA 1: UAAGACACGAUGCGAUAAAAUCUGUUUGUAAAAUUUAUUAAGGGUACAAAUUGCCCUAGC
RNA 2: GCUAGGGCAAUUUGUACCCUUAAUAAAUUUUACAAACAGAUUUUAUCGCAUCGUGUCUUA
For B10, the IC50 is 92.9 ± 2.8 nM with AIM2HIN [4]; 490 ± 40.3 nM with IFI16FL [5]; 1430 ± 366 nM in the data set with IFI16HinAB [6]; 281 ± 53.1 nM in the data set with AIM2HIN [7]; 69.7 ± 6.7 nM with AIM2FL [8]; 1130 ± 61.7 nM in the data set with IFI16HinAB [9]. Besides, the IC50 with IFI16FL [17] stood at 1070 ± 132 nM. Further, the Kd with IFI16FL [10] is 85 ± 7 nM; with AIM2FL [11], 50 ± 10 nM; with IFI16HinAB [12], 30 ± 10 nM; with IFI16FL [13] it was 85 ± 7 nM; in the data set with AIM2FL [14], 50 ± 10 nM; with AIM2HIN [2] it was 1100 ± 200 nM.
